In a protein production outcome set (Wang et al. 2014):

Experiment: label from the status in PepcDB records

| Sequence | protein production |
| --- | --- |
| VATPRGRLRVASPVLFSQLAMGRIGAGFYAAYPEVIIEVTAEDRLVDLVEEQFDVAIRINPDPDSRLVGRCFARDRLVVVAAPELPRPMPGAIRQTPAIVTSSFQPTHWKLDNGHLVLKPIPKLWFSS | failed |
| VEFSTLPAGPPAPPQDVTVQAGVTPATIRVSWRPPVLTPTGLSNGANVTGYGVYAKGQRVAEVIFPTADSTAVELVRLRSLEAKGVTVRTLSAQGESVDSAVAAVPPELLVPPTPHP | not failed |
| VEGFKVMRDGIKVASDETLLTPRFYTTDFDEMERLFSLELNKNMDMEEFEAMLNEFKLDYNQRHFVRNETFKEAAEKIQGPTRKIFIEFLERSCTAEFSGFLLYKELGRRLKATNPVVAEIFTLMSRDEARHAGFLNKAMSDFNLALDLGFLTKNRKYTFFKPKFIFYATYLSEKIGYWRYISIYRHLQRNPDNQLYPLFEYFENWCQDENRHGDFFTAVLKARPEMVNDWAAKLWSRFFCLSVYITMYLNDHQRDAFYSSLGLNTTQFNQHVIIETNKSTERIFPAVPDVENPEFFRRMDLLVKYNAQLVNIGSMNLPSPIKAIMKAPILERMVAEVFQVFIMTPKESGSYDLDANKTALVY | not failed |
| VENLKAQALCSWTAKKDNHLNFSKHDIITVLEQQENWWFGEVHGGRGWFPKSYVKIIPGSE | not failed |
| VEVIRARRLLDGQASTTGYFDNIEHCIDEEFGQCSITSNDKLLLVGSGAYPMTLIQVAKETGASVIGIDIDPQAVDLGRRIVNVLAPNEDITITDQKVSELKDIKDVTHIIFSSTIPLKYSILEELYDLTNENVVVAM | failed |
| VFHRFNEPGSRSGYSLYVPEYYDPDREWPLVMALHGGSGHGRLFLWSWLRDARARGAIVVAPTATGRTWALMGEDVDSPNLARILDEVRGHWRIDPSRLLLTGLSDGGTFCYVSGLTSDSPFTHLAPIAASFHPLLAGAADSARLRGLPIQIVHGRHDWMFPVEVARQAHEALVSAGADVSYREIADLSHSYPREANVALLDWL | failed |
| VGFAPELYCGLENCYDVLEVNREEFDKQKLAKAYRALARKHHPDRVKNKEEKLLAEERFRVIATAYETLKDDEAKTNYDYYLDHPDQRFYNYYQYYRLRAAPKVDL | not failed |
| VGKPKMDVDLLQVDADLKKEIFDAYYNTMKTAVMTEEKLAREVEIDKVKDTVKEVYAEKFSEHEEEAQLLKEVKQIAEDLEKDVVRELITIDKIRPDGRKLDEIRH | not failed |
| VIGTWDCDTCLVQNKPEAIKCVACETPKPGTCVKRALTLT | not failed |
| VKRAVQKTSDLIVLGLPWKTTEQDLKEYFSTFGEVLMVQVKKDLKTGHSKGFGFVRFTEYETQVKVMSQRHMIDGRWCDCKLPNSKQSQD | not failed |
| VLIIPGGGYRRIVYEREGLDVGRWIAGQGYTAFILSYRMPSVNGYYSFADAKNALNFISYWAGMSERTFKSVGCMGFSAGGHLAGYITHLHYEEETSVRPDWMALIYPVISLDRSIAHQGCRKRLLDAGESEYSASLENSVTEYMPPVFIVHATDDKDVPVIHSLRYFNSIRDKGHHAEAHFFDKGGHGFGVSGKNGYPIEKWQSLLLEWLAEH | failed |
| VMRLVTLRSHDQYNTTIYAMDDRYRGVFGRRDVLFMNEQDMAAQGLEHGDRVDIHTALPGSALTLEDITVVAYGIAPGTVGAYYPEANVLVPLNYLDEESGTPSYKSVPVRLTLRSKEIRPLVGGR | not failed |
| VNPLLDSLQPYPFEKLRALFKDVTPNAGLAHISFGIGEPKHPTPALIRDAVVASLGGLSAYPATSGSPALRESIAKWVTQRYNLPPVDPATQVLPVSGSREALFSLAQTVLDPQKNAGGEPAIVLCPNPFYQIYEGAAILAGAQPYFVNSDPARNFACDYSAVPAEIWARTQLLYVCSPGNPTGAVLTLDDWRELFALSDRYGFVIASDECYSEIYFDEAKPPLGGLEAAHKLGRGFERLVMLSSLSKRSNVPGMRSGFVAGDAAILKDFLLYRTYHGAALSTVFQNASIAAWNDEAHVRENRAKYLQKFSTVTPMLAEVLDVRLPDAAFYLWADVSRTGLTDTVFAQRLYADYNVTVLPGSFLARTAHGVNPGRNFVRMALVADVDECTQGAQRIVDFCRALAG | not failed |
| VPSLATAIGSSGDRPAALAELIGIIQNDGIRLPPVRIDSLHFAADTPYDTELIINPELGQRVLPSEVATAMREALSQVVDGGTAKRVQGTFKMQDGSVLAMGGKTGTGDNRIESIGAGGRILSSRAINRTATFVFYIGDNHFGALTAFVPGRAAEGFRFTSALPVQVLKGMAPILTPYLENHGQAMCNAPLADPPTGA | failed |
| VRGFLIVGNKAFTQPFSLNDLPGAGRMDVLCRCTSQALFISHGIRRDVEVYLLLLGPPSPPKSILIKGDEVRRMSPDERNVAGHIKKALAVECGKSWKKVHSGVYVSRKGLEELIEELSEKYSIIYLKEDGVDISNAQLPPNPLFVIGDHEGLTEEQEKVVERYAALKLSLSPLSLLAEQCVVIAHHHLDRLQF | not failed |
| VRIVLVGSGNLATQTALALSEAASPPVQVWSRNAEHAERLASMLPGATATDRTEELLCDAELYLLAVSDHALESVAATLPPTSGIWAHTAGSMPMDTLRPYHAQIGVFYPLQTFSRERRVDYSSIPIYIEGNDESVVRLLESVARLISRNVLRCT | failed |

| Sequence | protein production |
| --- | --- |
| VRTLWISDVHLGTRDCQAEHLSAFLKRYQADKVYLVGDIIDGWKLRGGMYWPQAHTNVIRRLLTMSKRGTEVIYVTGNHDEFLRRYSKLILGNIQLVDEAEHVTADGRRFLVIHGDQFDVITRYHRWLAFLGDSAYEFTLTLNRWLNHWRAKYGYGYWSLSAYLKHKVKSAVNFISDFEEAIAHECVKRGLDGVVCGHIHHAEIRQVGGVEYLNCGDWVESCTALIEHLDGNIELFRLA | failed |
| VSEEEIRMLVAESHEAGVIDAHERDMMNRVMRLGDRTADSLMTPRNRIAWLDANAEPERNLHVMREHEFSRYPVYRGSDQDIAGVLEVKSLVTRMDGHGAQLFQNLRDTLFVSESTHAMKLLEIFREEQQSMALVVDEYGEIRGLVTISDLMGAVVGRLQSVENTDD | failed |
| VTSDNAAFEGTFKEMFRRHAAGVAIITVNYNGTPYGFTATSVASLSAQPPRFTFNMARSSSSWPAIANTTHIGVHMLGLDNQELADRFARTKNRFEGDHWELGPYEVPILKDVAGWLIGKIQMRLSFENNAVVVVEVVEGQVGEDGTPLLYHSGAYSQPVPLDYEI | not failed |
| VWAHYEEQPVEEVMPVLEEKERSASYKPVFVTEITDDLHFYVQDVETGTQLEKLMENMRNDIASHPPVEGSYAPRRGEFCIAKFVDGEWYRARVEKVESPAKIHVFYIDYGNREVLPSTRLGTLSPAFSTRVLPAQATEYAFAFIQVPQDDDARTDAVDSVVRDIQNTQCLLNVEHLSAGCPHVTLQFADSKGDVGLGLVKEGLVMVEVRKEKQFQKVITEYLNAQESAKSARLNLWRYGDFRADDADEFGYSR | failed |
| VWEFYMPTDVFFGEKILEKRGNIIDLLGKRALVVTGKSSSKKNGSLDDLKKLLDETEISYEIFDEVEENPSFDNVMKAVERYRNDSFDFVVGLGGGSPMDFAKAVAVLLKEKDLSVEDLYDREKVKHWLPVVEIPTTAGTGSEVTPYSILTDPEGNKRGCTLMFPVYAFLDPRYTYSMSDELTLSTGVDALSHAVEGYLSRKSTPPSDALAIEAMKIIHRNLPKAIEGNREARKKMFVASCLAGMVIAQTGTTLAHALGYPLTTEKGIKHGKATGMVLPFVMEVMKEEIPEKVDTVNHIFGGSLLKFLKELGLYEKVAVSSEELEKWVEKGSRAKHLKNTPGTFTPEKIRNIYREALGV | not failed |
| VYGSEVESKIIEFTIVGADEIIAEKLGISVGDFVYKIIRLRIIHSIPTIMEHTWMPIAVIPGVEASVLEESIYSYIQNKLGLKVGTSVVRVKGIRPDDKEKQFMNLTNQDFLMRVEQVAYLTDGRTFEYSYADHLPETFEFETVITAKSYKEA | not failed |
| WMVQDSVGSGAALASLEGEETGRLWLAAQPEHGFQTLQGLAYALAREVRRLQPDSPYRLAGKGVLGALAYEVGLQLRGMGQTVACVALEGAPAWVRQSEALAVERSQASLPAWLRRCLSSYVPEPGDFPLQPTNMPASAEAFWRALG | failed |
| WQWDLATNKFIYSDNQHRLLGVERDSFESSNDAFINFVHPEDRHVIKNGERMVLDEQQSSVAFFRVIRKDGQMRYFKSIGKLLTDSSGNKILIGINNDITEEH | failed |
| WRQRDEAEFTGVDDIPVRFVRFRAQHHDRVVVICPGRIESYVKYAELAYDLFHLGFDVLIIDHRGQGRSGRLLADPHLGHVNRFNDYVDDLAAFWQQEVQPGPWRKRYILAHSMGGAISTLFLQRHPGVCDAIALTAPMFGIVIRMPSFMARQILNWAEAHPRFRDGYAIGTGRWRALPFAINVLTHSRQRYRRNLRFYADDPTIRVGGPTYHWVRESILAGEQVLAGAGDDATPTLLLQAEEERVVDNRMHDRFCELRTAAGHPVEGGRPLVIKGAYHEILFEKDAMRSVALHAIVDFFNRHN | failed |
| WWNWKGHEVHLDCFRNEKAPVKVILLHGVGTNGRQMSMILGGPLSKDGFETIAIDMPTYGVTKVKKGSVVKYDDWVDLACDYIDYEQQRDDRPIVLYGLSAGGMETYHVAAKNKKVKGIIGMTFLDQKNQQVRDETAKNLVMSRVGIPMAGIACNIGLENFKMKMSTASKMSALCNNEKVMEIFNRDKTSAANKASMRFLDSYGNYQPAMEPEDFDVCPILLTQPEQDKWTPLHLSTPFLNKIKKVDVKIVMLENGGHYPVEQPALDQMHDAIVEFIYKVTK | failed |
| XRKPILAALTLAGLGLAQEFITIGSGSTTGVYFPVATGIAKLVNDANVGIRANARSTGGSVANINAINAGEFEXALAQNDIAYYAYQGCCIPAFEGKPVKTIRALAALYPEVVHVVARKDAGIRTVADLKGKRVVVGDVGSGTEQNARQILEAYGLTFDDLGQAIRVSASQGIQLXQDKRADALFYTVGLGASAIQQLALTTPIALVAVDLNRIQAIAKKYPFYVGFNIPGGTYKGVDVTTPTVAVQAXLIASERLSEETVYKFXKAVFGNLEAFKKIHPNLERFFGLEKAVKGLPIPLHPGAERFYKEAGVLK | not failed |
| YIGLVNSFAQKKKLSVNYEQCEPNSELPQRFICKCKIGQTMYGTGSGVTKQEAKQLAAKEAYQKLLKSPPKTAGT | not failed |
| YPLRKTQAVQSTQFDSRHSFVTKLKPYADKAARMLGVDSSLLIAQAALETGWGQKMVKNARGNSNNLFNIKADRSWQGDKVATQTLEYHNNVPVVEKAAFRSYASFDESFNDYVRFLENNPRYTNALDHGGNSERFIHGIHRAGYATDPQYADKVLRVKAQIDQMNL | failed |
| YRQSQSRAARLRLLVDTGQELIQLPPEAMRKCVLQRACAFVAMDHGLLLEWGADNGVQTTARHGSKERLSTLETTADPLAIGPQWLERPGTHLPCVLLLPLRGADEGSFGTLVLANSVAISAPDGEDIESLQLLATLLAAHLENNRLLEALVARDRT | not failed |
| YWGPLDVGEAKSLPGMEDPKLVYIPSIAPSNMVLYRGDKYSELDGKILVGALKLTHINVVGINDGKLTESQRLLEKLGERIRDITISPDGYIYFSTDSGKIFRLTEQ | failed |
| YYNPVRYPERTKERRDLVLRLLMQQNMLTSQQYEQAVSRPLDTQSKPRIASRQPAYFQQLNIELKEKVGDRFKAETGL | failed |
